Data: patent US20060019335A1, “Compositions and methods to promote c-IAP autodegradation” (priority 2004, published 2006)

T1: Livin α (Homo sapiens, UniProt Q96CA5)
T1 construct: expressed in transfected cells; host or cells: HeLa
T1 sequence (Q96CA5 1-298): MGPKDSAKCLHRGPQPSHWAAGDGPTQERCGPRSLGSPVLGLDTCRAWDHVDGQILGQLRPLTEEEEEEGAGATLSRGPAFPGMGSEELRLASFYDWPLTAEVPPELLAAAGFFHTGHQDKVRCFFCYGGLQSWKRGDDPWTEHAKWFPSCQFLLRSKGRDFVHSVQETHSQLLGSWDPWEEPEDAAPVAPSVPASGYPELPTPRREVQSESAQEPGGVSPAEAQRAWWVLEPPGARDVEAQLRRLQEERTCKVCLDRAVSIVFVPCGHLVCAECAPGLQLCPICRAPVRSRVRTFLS

T2: Livin β (Homo sapiens, UniProt Q96CA5)
T2 construct: expressed in transfected cells; host or cells: HeLa
T2 sequence (Q96CA5 1-280 isoform Q96CA5-2): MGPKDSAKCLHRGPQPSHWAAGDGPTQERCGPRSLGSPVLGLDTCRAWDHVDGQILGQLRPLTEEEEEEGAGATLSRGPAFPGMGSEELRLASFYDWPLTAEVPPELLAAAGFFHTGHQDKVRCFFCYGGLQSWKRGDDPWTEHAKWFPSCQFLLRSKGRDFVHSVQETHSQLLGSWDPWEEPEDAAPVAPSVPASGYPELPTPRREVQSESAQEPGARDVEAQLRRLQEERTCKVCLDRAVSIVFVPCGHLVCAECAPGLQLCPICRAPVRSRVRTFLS


Key:
Livin α = target: T1, Livin α; test: Co-transfection of HeLa cells with Livin α and Smac plasmids, Western blot; format: cell-based; details: for auto-ubiquitylation of Livin: FIG. 3B
Method: (§1) Transfection of cultured Cells—HeLa cells were grown in DMEM supplemented with 10% fetal bovine serum. Cells were seeded onto 6-well plates the day before transfection and transfected at 70% confluence by using Lipofectin combined with Plus reagent (Invitrogen) according to the manufacture's protocols. The IAP expression plasmids (3 μg each for c-IAP1, c-IAP2 and XIAP, and 250 ng each for Livin αand Livin β) together with 2.5 μg of Smac expression plasmids or pcDNA3.1(−) blank plasmid were used for single-well transfection in the absence of antibiotics. The cells were harvested 12 hours after the transfection and lysed with 0.5% CHAPS in 20 mM HEPES (pH 7.4), 10 mM KCl, 1 mM MgCl2 and 1 mM DTT. The lysates were centrifuged and the protein concentrations of the supernatants were quantified by the modified Bradford method (36).
(§2) Western Blot analysis—Proteins were resolved by SDS-PAGE and transferred to nitrocellulose filters. The filters were blocked with 5% milk and probed with antibodies as indicated. The signals were visualized with the enhanced chemiluminescence method.
In the current study, Livin was also transiently expressed in HeLa cells to determine the ubiquitylation activity (see FIG. 3B). Briefly, Livin α WT or H269A mutant plasmids together with Smac WT or Smac ΔA mutant, or with pcDNA3.1(−) blank plasmid, were co-transfected into HeLa cells. As controls, HeLa cells were also transfected with either Smac WT or ΔA plasmids together with the blank p3×FLAG-CMV-7 plasmid. The transfected cells were cultivated either in the absence (see lanes 1-7 of FIG. 3B) or in the presence (see lane 8-14 of FIG. 3B) of MG132. Equal amounts of soluble proteins (7 μg) from the transfected cells were immunoblotted with either the HRP-conjugated anti-FLAG antibody (see top panel of FIG. 3B) to detect N-terminal 3×FLAG tagged IAPs, or with the anti-c-Myc antibody (see middle panel of FIG. 3B) to detect Smac. The anti-Actin immunoblotting results were to show equal protein loading (see bottom panel of FIG. 3B). […]

Livin β = target: T2, Livin β; test: Co-transfection of HeLa cells with Livin β and Smac plasmids, Western blot; format: cell-based; details: data not shown
Method: as §1, §2
In the current study, Livin was also transiently expressed in HeLa cells to determine the ubiquitylation activity (see FIG. 3B). Briefly, Livin α WT or H269A mutant plasmids together with Smac WT or Smac ΔA mutant, or with pcDNA3.1(−) blank plasmid, were co-transfected into HeLa cells. […]

XIAP = XIAP (Homo sapiens, UniProt P98170); test: In vitro ubiquitylation assay of purified XIAP; format: biochemical
Chain of XIAP (P98170 whole entry): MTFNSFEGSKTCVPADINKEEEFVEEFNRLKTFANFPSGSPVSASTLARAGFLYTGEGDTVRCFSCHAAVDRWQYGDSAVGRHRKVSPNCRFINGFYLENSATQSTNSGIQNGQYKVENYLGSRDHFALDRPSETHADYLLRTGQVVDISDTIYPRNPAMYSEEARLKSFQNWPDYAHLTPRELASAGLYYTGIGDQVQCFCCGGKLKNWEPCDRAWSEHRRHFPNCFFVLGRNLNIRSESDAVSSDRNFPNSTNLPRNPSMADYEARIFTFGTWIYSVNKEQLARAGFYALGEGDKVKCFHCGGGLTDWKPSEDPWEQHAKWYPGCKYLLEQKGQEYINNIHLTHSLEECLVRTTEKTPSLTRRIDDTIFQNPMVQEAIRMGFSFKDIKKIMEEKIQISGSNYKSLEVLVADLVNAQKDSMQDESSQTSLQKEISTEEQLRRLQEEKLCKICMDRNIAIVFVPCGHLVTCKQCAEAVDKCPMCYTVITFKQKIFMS
Method: (§3) In vitro ubiquitylation assays—In vitro ubiquitylation assays were carried out as previously described (29). IAP proteins (200 nM) were incubated with or without Smac polypeptide for 2 hours at 30° C. in a reaction system containing 50 mM Tris-HCl (pH 7.5), 50 mM NaCl, 2 mM Mg-ATP, 20 μM mammalian ubiquitin, 100 nM rabbit ubiquitin-activating enzyme (E1) and 400 nM of recombinant human ubiquitin-conjugating enzymes (E2). The reactions were stopped by adding equal volumes of 2×SDS sample loading buffer followed by Western Blot analysis.
To determine whether Smac promotes auto-ubiquitylation of XIAP, purified XIAP (without tag) was incubated for 2 hours at 30° C. either with or without different concentrations of Smac or with Smac ΔA in the reconstituted ubiquitylation reaction system (Ub Mix) consisting of 50 mM Tris-HCl (pH 7.5), 50 mM NaCl, 2 mM Mg-ATP, 20 μM mammalian ubiquitin, 100 nM rabbit ubiquitin-activating enzyme (E1) and 400 nM UbCH6 (E2). The reactions were stopped by adding equal volumes of 2×SDS sample loading buffer and the products were subjected to SDS-PAGE followed by immunoblotting with anti-XIAP antibody. The purified XIAP was active in directing poly-ubiquitylation. But the auto-ubiquitylation of XIAP was not enhanced by Smac.

c-IAP2 = target: T3, c-IAP2 (Homo sapiens, UniProt Q13489); test: In vitro ubiquitylation assay of c-IAP2; format: biochemical; details: data not shown
T3 construct: produced not only the expected full length c-IAP1 or c-IAP2; expressed in transfected cells; host or cells: HeLa
T3 sequence (Q13489 whole entry): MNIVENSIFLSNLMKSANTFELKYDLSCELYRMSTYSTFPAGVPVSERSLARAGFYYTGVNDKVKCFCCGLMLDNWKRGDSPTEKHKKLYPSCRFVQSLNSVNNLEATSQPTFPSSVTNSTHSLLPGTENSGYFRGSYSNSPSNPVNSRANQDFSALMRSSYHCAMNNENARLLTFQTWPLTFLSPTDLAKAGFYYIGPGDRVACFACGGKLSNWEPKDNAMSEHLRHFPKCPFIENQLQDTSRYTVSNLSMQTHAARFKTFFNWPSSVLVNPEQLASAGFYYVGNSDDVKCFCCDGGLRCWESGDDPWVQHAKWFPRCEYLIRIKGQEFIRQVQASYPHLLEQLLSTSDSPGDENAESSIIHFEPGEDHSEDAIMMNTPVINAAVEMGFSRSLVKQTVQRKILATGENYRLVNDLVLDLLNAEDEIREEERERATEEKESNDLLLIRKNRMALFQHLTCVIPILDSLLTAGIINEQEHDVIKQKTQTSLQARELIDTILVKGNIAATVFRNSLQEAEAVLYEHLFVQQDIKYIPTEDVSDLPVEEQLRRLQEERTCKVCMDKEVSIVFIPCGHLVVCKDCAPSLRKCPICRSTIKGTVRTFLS
Method: as §3
The observation that Smac promotes c-IAP1 auto-ubiquitylation in HeLa cells was further confirmed in vitro by using UbCH6 as the E2.

Molecule	auto-ubiquitylation of Livin (Livin α)	degradation of Livin α (Livin α; absence of MG132, FIG. 3B)	transfection results of Livin β (auto-ubiquitylation, degradation) (Livin β)	amount of ubiquitylated forms of XIAP with a high molecular weight of ~150 kDa (XIAP; UbCH6 as E2, FIG. 6)	auto-ubiquitylation of XIAP in vitro (XIAP; purified XIAP without tag, UbCH6 as E2, 2 hours at 30° C., FIG. 6)	c-IAP2 auto-ubiquitylation in vitro (c-IAP2)
Smac: wild type (WT) Smac polypeptide from Homo sapiens, SEQ ID NO 1, 239 amino acids; second mitochondria-derived activator of caspase (protein, listed as Homo sapiens) MAALKSWLSRSVTSFFRYRQCLCVPVVANFKKRCFSELIRPWHKTVTIGFGVTLCAVPIAQKSEPHSLSSEALMRRAVSLVTDSTSTFLSQTTYALIEAITEYTKAVYTLTSLYRQYTSLLGKMNSEEEDEVWQVIIGARAEMTSKHQEYLKLETTWMTAVGLSEMAAEAAYQTGADQASITARNHIQLVKLQVEEVHQLSRKAETKLAEAQIEELRQKTQEEGEERAESEQEAYLRED	effectively stimulates auto-ubiquitylation of Livin α	slightly promoted the degradation of Livin α	substantially similar to that of Livin α	slightly reduced	not enhanced	–
Smac ΔA: Smac mutant lacking the initial Ala (Ala deletion mutant polypeptide), used as negative control (protein, UniProt Q9NR28 22-239, looked up, variant A1*) Diablo IAP-binding …: LCVPVVANFKKRCFSELIRPWHKTVTIGFGVTLCVPIAQKSEPHSLSSEALMRRAVSLVTDSTSTFLSQTTYALIEAITEYTKAVYTLTSLYRQYTSLLGKMNSEEEDEVWQVIIGARAEMTSKHQEYLKLETTWMTAVGLSEMAAEAAYQTGADQASITARNHIQLVKLQVEEVHQLSRKAETKLAEAQIEELRQKTQEEGEERAESEQEAYLRED	stimulated the auto-ubiquitylation of XIAP and Livin	–	–	–	–	did not promote the E3 activity
